# The nanobody polyreactivity screen of Harvey et al. (2022)
# Experiment: yeast display, Sf9 membrane polyspecificity reagent, FACS + sequencing; frameworks hold sequencing errors
# Summary of the method: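 In a synthetic yeast display library (Saccharomyces cerevisiae BJ5465), nanobody expression was induced with galactose for 36–48 hours. FACS gates were set low and high (top ~1%) using anti-HA fluorescence for expression and streptavidin fluorescence for binding of the Sf9 membrane reagent. Each polyreactivity label is drawn from the gate of origin.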
row,Sequence,polyreactivity (PSR sort gate)
1,QVQLVESVGGLVQAGGSLRLSCAASGRTFHYYVMGWYRQEPGKEGELVAAISRSGGNTYYADSVKGRFTISRDNAQNTVYLQMNSLKPEDTADYYCAAALSAYVKWDYYYWGQGTQVTVSS,high polyreactivity
2,QVQLVDSGGGLVQAGGTLRLSCAASGSTFRYYAMGWYRQAPGKERELVAAISWNGGRTYYADSVKGRFTISRDNAKNTVYLQMNSLKPEDSAVYYCDAVHYVAYYGYDFWGQGTQVTVSS,high polyreactivity
3,QVQLVESGGGVVQAGGSLRLSCAASGSIFPYYVMGWYRQAPGKERELVAVISQSGGSTYYADSVKGRFTISRDNAKNTVYLQMNSLKPEDTAVYYCAAESAYDAYDYWGQGTQVTVSS,high polyreactivity
4,QVQLVESGGGLVQAGGSLRLSCAASGSTFANYAMGWYRQAPGKERELVAGISWRGGRTYYADSVKGRFTISRDNAKNTVYLQMNSLKPEDTAVYYCAVVHQTFTGDYWGQGTQVTVSS,high polyreactivity
5,QVQLVESGGGLVQAGGSLRLSCAASGSIFVTNAMGWYRQAPGKERELVAAISVSGGSTYYADSVKGRFTISRDNAKNTVYLQMNSLKPEDTGVYYCAADGYIGWRHIYEYWGQGTQVTVSS,low polyreactivity
6,QVQLVESGGGLVQAGGSLRLSCAASGNIFRAYAMGWYRQAPGKERELVARISASGGSTYYADSVKGRFTISRDNAKNTVYLQMNSLKPEDTAVYYCAARVRVRLGRNWSSYYYWGQGTQVTVSS,high polyreactivity
7,QVQLVESGGGLVQAGGSLRLSCAASGRIFTIYAMGWYRQAPGKERELVAAITRGGNTNYADSVKGRFTISRDNAKNTVYLQMNSLKPEDTAVYYCAARANVYTKKRDYWGQGTQVTVSS,high polyreactivity
8,QVQLVESGGGLVQAGGSLRLSCAASGFIFDTYVRGWYRQAPGKERELVAAISRTGGRTYYADSVKGRFTISRDNAKNTLYLQMNSLKPEDTAVYYCAARQSTQSGSYRRYNYWGQGTQVTVSS,high polyreactivity
9,QVQLVESGAGLVQAGASLRLSCAASGRIFSRYVMGWYRQAPGKEREFVASITWSGSSTYYADSVKGRFTLSRDNAKNTVYVQMNSLKPEDTAVYYCAALGLLSPSPWGTHIYEYDSWGQGTQVTVSS,low polyreactivity
10,QVQLVESAGGLVQAGGRLRLSCAASGSTFSYYAMGWYRQAPGKEREWVAAISRSGGSTYYADSVKGRFTISRDNAKNTVYLQLNSLKPDDTAVYYCNRYYYTVTREFDYWGQGTQVTVSS,low polyreactivity
11,QVQLVESGGGLVQAGGSLRLICAAYGLTFTRNAMGWYRQARGKERELVAGITRGGSTYHADSVKGRFTISRDNAKNTVYLQMNSLKPEYTAVYYCAAGVQYARYQARYYYWGQGTQVTVSS,high polyreactivity
12,QVQLVESGGGLVQAGGSLRLSCAASGSIFDIYGMGWYRQAPGKERELVASISGGAGSTNYADSVKGRFTISRDNAKNTVYLQMNSLNPEDTAVYYCAAEVYVPDYFQHKFDVEYEYWGQGTQVTVSS,low polyreactivity
13,QVQLVESGGGLVQAGGSLRLSCAPSGSILGSNAMGGYRQAPGKERELVAAITSSGGSTYYADSVKGRFTISRDNAKNTVYLQMNSLKPEDTAVYYCNADATDSYPEKDYHDSWGQGTQVTVSS,low polyreactivity
14,QVQLVESGGGLVQAGGSLRLSCAASGRTFGWYSMGWYRQAPGKERELVAAINNSVDITYYSDSVKGRFTISRDNAKNSVYLQMNSLKPEDTAVYYCNRDARSGFVTIYATDYDYWGQGTQVTVSS,low polyreactivity
15,QVQLVESVGGFVQAGGSLRLSCAASGRIFGTYAMGWYRQAPGKERELVAAITRGGTTYYADSVKRRFTISRDNAKNTVYLQMNSLKPEDTAVYDCATGPAIRYDYWGQGTQVTVSS,low polyreactivity
16,QVQLVESGGGLVQAGGSLRLSCAASGFIFPGNTMGWYRQAPGKERELVAAITRSGASTYYADSVKGRFTISRDNAKNTVYLQMNSLKPEDTAVYYCAERYYYGLRYPDYYYWGQGTQVTVSS,high polyreactivity
17,QVQLVESGGGLVQAGGSLRLSCAASGSTFGWYAMGWYRQAPGKERDFVASITSSTGSTYYADSVKGRFTISRDNAKNTVYLQMYSLKPEDTAVYYCAASYVYTFLSYLLEYDYWGQGTQVTVSS,high polyreactivity
18,QVQLVESGGGLVQAGGSLRLSCAASGRTFTSNAMGWYRQAPGKERELVAAITRGGSTYYADSVKGRFTISRDNAKNTVYLQMNSLKPEDTAVYYCNAGIYFRRKRYDYWGQGTQVTVSS,high polyreactivity
19,QVQLVESGGGLVQAGGSLRLSCAASGRTILHYAMGWYSQAPGKERELVASISSGVSTHYADSVKGRFTISRDNAKNTVYLQMNSLIPEDTAVYDCAARPYRIGRYGYDYDYWGQGTQVTVSS,high polyreactivity
20,QVQLVESGGGLVQAGGSLRLSCAASGIIIAWYAMGWYRQAPGKERELVAAITSGGGSTYYADSVKGRFTISRDNAKNTVYLQMNSLKPEDTAVYYCAADYQTIGWGYDYWGQGTQVTVSS,low polyreactivity
21,QVQLVESGGGLVQAGCSLRLSCAASGSIFKRYTMGWYRQAPGKERELVAAISSRGGSTYYADSVKGRFTISRDNAKNTVYLQMNILKPEDTAVYYCNTKLHDGYGGWRYDYWGQGTQVTVSS,high polyreactivity
22,QVQLVESGGGLVQAGGSLRLSCAASGSIFASYGLGWYRQAPGKARELVAAITSRGTSTYYADSVKGRFTISRDNAKNTVDLQMHSLKPEETAVYYCAARLYGSAPQHEYWGQGTQVTVSS,low polyreactivity
23,QVQLVESGGGLVQAGGSLRLSCAASGSILQSYAMGWYRQAPGKERELVAAITYRGGRTYYADSVKGRFTISRDNAKNTVYLQMNSLKPEDTAVYYCAADQQRSIDAPYGYWGQGTQVTVSS,low polyreactivity
24,QVQLVESGGGLVQAGGSLRLSCAASGSTLVYNGMVWYRQAPGKEREFVAAIRSNDGSTYYADSVKGRFTISRDNAKNTVYLQMNSLKPEDTAVYYCNNDVWDGYDWPEFDYWGQGTQVTVSS,low polyreactivity
25,QVQLVESGGGLVQAGGSLRLSCAASGSIFGYYAMGWYRQAPGTERELVATITWGGGSTYADSVKGRFTISRDNAKNTVYLQMNSLKPEDTAVYYCNAGYRYTSAQVTWEYDSWGQGTQVTVSS,low polyreactivity
26,QVQLGESGGGLVQAGGSLRLSCAASGRIFRVNTMGWYRQAPGKERELVAAIRSSGTRTYYAVSVKGRFTISRDNAKNTVYLQMNSLKPEDTAVYYCAATGRRGSGYYYWGQGTQVTVSS,high polyreactivity
27,QVQLEESGGGLVQAGRSLRLSCAASGRTFIRNAMGRYRHAPGQQRELVAAISSRGGRTYYADSVKGRFTISRDNAKTTVSLEMNSLKPEDTAVYYCAADFTYKLDGYDYWGQGSQVTVSS,high polyreactivity
28,QVQLVESGGGLVQAGGSLRLSCAASGSTFSFYDMGWYRQAPGKETELVDAITGSGGTTYYADSVKGRFTISRDNAKNTVYLKMNSLIPEDTAVYFCAADSLESYPDYEYDYWGQGTQVTVSS,low polyreactivity
29,QVQLVESGGGLVQAGGSLRLSCAASGITFPYYTMGWYRQAPGKERELVATIRNGGSTYYADSVKGRFTISRDNAKNTVYLQMNSMKPEDTAVYYCAAVPLWDYKFFYYLLYDYWGQGTQVTVSS,low polyreactivity
30,QVQLGESGGGLVQAGRSLRLSCAASGSTIGPDAMGWYRQAPGTERELVAAIRYSSVRTYYADSVKGRFTISRDNAKNSVYVQMNSLKPEDTAVYYCNAVFWSYTVWGRSDYWGQGTQVTVSS,low polyreactivity
